This experiment has as its target Hen egg-white lysozyme (Hewl) (hen) (UniProt P00698).

Chain of Hen egg-white lysozyme (Hewl) (hen) (P00698 19-147): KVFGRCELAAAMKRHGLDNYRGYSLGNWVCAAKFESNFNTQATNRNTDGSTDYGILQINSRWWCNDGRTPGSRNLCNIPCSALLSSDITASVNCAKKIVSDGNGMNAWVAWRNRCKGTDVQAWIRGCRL

“recombinant Neisseria meningitidis Adhesin Complex Protein (rNm-ACP) (natural protein)” came in with a reduction of Hewl (10 U/well)-mediated lysis of M. lysodeikticus cells (OD at 595 nm, 25 °C), rNm-ACP 6-180 pmol/well, read at 2 h and 24 h of 80%.
Regarding “recombinant Dichelobacter nodosus Adhesin Complex Protein (rDn-ACP) (from UniProt A5EV15 1-230) (natural protein)”, the reduction of Hewl (10 U/well)-mediated lysis of M. lysodeikticus cells (OD at 595 nm, 25 °C), rDn-ACP 3-90 pmol/well, read at 2 h and 24 h is 100%.

These data come from paper PMC6624275.
